Test results published in the DeepSol protein solubility set.

Assay: soluble on expression in E. coli; label from the status in PepcDB or PDB records
With “MRQWTAIHLAKLARKASRAVGKRGTDLPGQIARKVDTDVLRKLAEQVDDIVFISGTNGKTTTSNLIGHTLKANNIQIIHNNEGANMAAGITSAFIMQSTPKTKIAVIEIDEGSIPRVLKEVTPSMMVFTNFFRDQMDRFGEIDIMVNNIAETISNKGIKLLLNADDPFVSRLKIASDTIVYYGMKAHAHEFEQSTMNESRYCPNCGRLLQYDYIHYNQIGHYHCQCGFKREQAKYEISSFDVAPFLYLNINDEKYDMKIAGDFNAYNALAAYTVLRELGLNEQTIKNGFETYTSDNGRMQYFKKERKEAMINLAKNPAGMNASLSVGEQLEGEKVYVISLNDNAADGRDTSWIYDADFEKLSKQQIEAIIVTGTRAEELQLRLKLAEVEVPIIVERDIYKATAKTMDYKGFTVAIPNYTSLAPMLEQLNRSFEGGQS” the “soluble on expression in E. coli” value was “not soluble”.
In the case of “MSELLEKAERLKTASQTLAMLSAEEKNAALEQIAQTLDRERAFILQENEKDMAQGCKQGLSPALLDRLQLTNERLDQIIDGVRQVASLPDPVGEIIAEWTRPNGLRIQTVRVPLGVIGMVYEARPNVTVDAASLCLKTGNAVLLRGSTSALHSNKALVRVMKEALRTTTVPETAIELLEDTSRETAQHMFRLNEYLDVLIPRGGAGLIRSVVENATVPVLETGVGNCHIFIDESAERQMAIDIVLNAKLQRPSVCNAVETVLIHERWPYADDLLETLHARGVELRGDQRLASAHPFVSEATEDDWYTEYLAPILAVKLVADVDEAIGHIRRYGTKHSEAIITENEANVRRFFQGVDAAVLYHNASTRFTDGEQFGYGAEIGISTQKLHARGPMGLVAITTTKSLVYGTGQIRE”, the “soluble on expression in E. coli” value is reported as “not soluble”.
With “MSLKKFLKMFFPHDGIYEVLVGTSGIKPIIKPLGIIVEANELRSKIYKSTLTYSNLEKNNKCSIHVTLDTTFFILSMLDKLTFSIDSDYNVPVLKNLNVIYAECMKTSSTDPSIFTINPLDLEINSNLTRAYNRGDYISVDFLVNYTRLDIYKGEDLEKLVRILEYEWSVIKRTSQYTSSLLEEILNKMRSKGFKLDEGHHHHHH” the “soluble on expression in E. coli” value was “not soluble”.
In the case of “MGSDKIHHHHHHMSFKKVDLSRYQFDGAQASSIGDLTQLDAADKQRLLYAGIDVNQQNLAGSFMHMNHSGVHCTSRQEGLEILDIKQALDTYHGLPDYFWKLVDRNKDEYTRAADEHLHGGYFIRARAGAKIEAPVQSCLFIKGNGVGQNVHNVVVVEEGAEMHIITGCATAHDTRSVAHLGISEFYVHKGGKLTFTMIHNWGEEAAVRPRSAGYLEEDAVFLSNYVLLKPVTDLQMYPTITLGGRGSVARFNSVIVAPTGSYVDTGNRILLEAPDTRGEIIARTMTTGGTIINRGHIAGHAVPARGHLECKGLILGGGVIHAIPELEGTQDGVELSHEAAVGKIAQEEIEYLMARGLDEDEATSTIVRGFLNVDIMGLPEELEKAVEEQINQLDAGDAM”, the “soluble on expression in E. coli” value is reported as “not soluble”.
In the case of “MAHHHHHHMDAPVNVFLRFGLSHSERLNHLLERVGTAQAAFRIVGPRQQEGVARTPAHPHDGADCARVGAPFSVHSGSCSHTCKGEAHDELCASLARLPPLPSPPPASHTCYCLHRTRFRCFCFPSPSLLQRRTLGGGGIGVGRAADVQHPFNGQEPALSVYFTHCHAGLRRTSPRCLISYCGRVSSLRFAFPLGDQVTFFVPLFHTDTSSMGTTHEYEPPVAMKPLEELTDADRREMRDLGIGEGMFNCILTSCMKFALSGGWSVRKHDAKYDIVWETKPSQNSNKQAMRFTAKVPNCNTGSLEAILVADEYLEDDPNVSYMYKYDRLLQQNHAEKRIAGNVTVQSTHYGAPVMFVAPRHIISYVTLGALLTPAQQKELWIRPTGLRDQLADAERKDDLMAFTQCCIDYTGDAVELRKGSERGHVYSYSLLGQEEPDGSMTVTMTLDIDPAGKLPAKVVDMSSDEQHKKMQRIVELLKAKGPQPHLCSVYQNTRDFPFRNPSKGEGEGKRS”, the “soluble on expression in E. coli” value is reported as “soluble”.
With “MSKKTPLNEIAEFDVSDYLRDDEDIAEYLTQVLAEGDSNELLRAIGYIAKARGITQLAKDTGLGRESLYKAFRAGSKPQFETVFKVLHALNINLKAIPKEVVSTRV” the “soluble on expression in E. coli” value was “not soluble”.
In the case of “MSLKNTTHFIVFDIERNFRPYKSDDPSEIVDIGAVKIEASTMKVIGEFSELVKPGARLTRHTTKLTGITKKDLMNVEKFPQIIERFIQFIGEDSIFVTWGKEDYRFLVHDCTLHGVDCPCMEKERRIDLQKFVFQAYEELFEHTPSLQSAVEQLGLTWEGKQHRALADAENTANILLKAYSERDITKRYKRHGELELVENGKLTEKAKKKMRKWVFKEMRKNTERPFAWSTFESSDTWESITERYYISEPTIELLKKHFRTAVRKAERRIRYLAEMEKNAEVKEGHHHHHH”, the “soluble on expression in E. coli” value is reported as “soluble”.
For “MGSDKIHHHHHHMRINVEEAIEKLLANQLVAMPTETVYGLAARLTCPGAIKKIFEIKGRSLVNPLIIHVANPIDVCAYAIALPPHFDALTHAFWPGPLTLIVPIQLDLVDSIVRAGLPTAAFRMPSHPLTLHVIRAVGPLVMPSANLSGKPSSTDVKHVEMDFGLDFPVLDGGPCQEGVESTILHYRNSQWEIARLGALSATVFQPILGYEPIYQKIVKNDQIISPGQMFRHYAPQATLFLGDQKQITEADFIVGFTEKSYPVEKRVLYLGSLSNPHEVAENLYAVLRQLDFEKAKIAWVDMDFPSEGLWKTIAERLSRAGEK”, the “soluble on expression in E. coli” value was “not soluble”.
For “MSLTQREEELARVLSGPEFATIRPDDLSVLDYSLLTLRRARLLNGAGFAANSLWLGRGDSARFPEFLRTMGWIGAYDLSLLNVLVSHQIAGDALLSHGGPEQLDAWAGEIDAMERMYCFAGSELLAGSDLKRVRTTAVYDPHGRSLVLNTPRPADSKVWTGNSLHTGDVAMVLARLEVGGRDEGHHWLRVPLREAGAVLPGVRIGRAEPKGGVTANQTGVLTFTDHRLPLSALMNRWASIDEDGTYRSPLPRHRRFEECLATFTHERLFPSVGAAYAQLLACTITTRFAAVKQTFGRPLIGHEHYRMRLSAAVGRSLAARHAMTALAEVAVARSAEGAPARDQVLHALISCGKSGCTGDARQTLAETRELCGGLGYHDANQIAPLLHDYEIAVTFGGDNTVLGYQATRFALREGHHHHHH”, the “soluble on expression in E. coli” value was “not soluble”.
With “MGSDKIHHHHHHMSEALTIAGVDIQPGTQHQLELPVASLYTDTQVSIPVHVIRAKKDGPKVFVSAAVHGDELNGIEIIRRLIQSKLKLLKGTLILVPMVNVYGVLNQSRYMPDRRDLNRCFPGSPKGSLAGRVAYTFLNSIVQHCDYGIDLHTGAIHRSNLPQIRANLDDEQTLALAQAFGVPVLLNANVRDGSLREAAVNKGTRVLLYEAGQALRFDELSIQTGERGILNVLSSLGLIRKRRLRKKIEPFIANRSDWTRASASGFVCEFAKLGAYVEKGQVLAEINSPLGELIQSVVSNRTGIVIGKQNIPLVLEGDAMFHVAYFGSAADEVAEHIEIMNDQIMPLTTQTI” the “soluble on expression in E. coli” value was “not soluble”.
In the case of “MIGILKKVFDVNQRQIKRMQKTVEQIDALESSIKPLTDEQLKGKTLEFKERLTKGETVDDLLPEAFAVVREAATRVLGMRPYGVQLMGGIALHEGNISEMKTGEGKTLTSTLPVYLNALTGKGVHVVTVNEYLAQRDANEMGQLHEFLGLTVGINLNSMSREEKQEAYAADITYSTNNELGFDYLRDNMVLYKEQCVQRPLHFAIIDEVDSILVDEARTPLIISGQAQKSTELYMFANAFVRTLENEKDYSFDVKTKNVMLTEDGITKAEKAFHIENLFDLKHVALLHHINQALRAHVVMHRDTDYVVQEGEIVIVDQFTGRLMKGRRYSEGLHQAIEAKEGVEIQNESMTLATITFQNYFRMYEKLSGMTGTAKTEEEEFRNIYNMNVIVIPTNKPIIRDDRADLIFKSMKGKFNAVVEDIVNRHKQGQPVLVGTVAIETSELISKMLTRKGVRHNILNAKNHAREADIIAEAGMKGAVTIATNMAGRGTDIKLGDDIKNIGLAVIGTERHESRRIDNQLRGRAGRQGDPGVTQFYLSMEDELMRRFGSDNMKAMMDRLGMDDSQPIESKMVSRAVESAQKRVEGNNYDARKQLLQYDDVLRQQREVIYKQRQEVMESENLRGIIEGMMKSTVERAVALHTQEEIEEDWNIKGLVDYLNTNLLQEGDVKEEELRRLAPEEMSEPIIAKLIERYNDKEKLMPEEQMREFEKVVVFRVVDTKWTEHIDAMDHLREGIHLRAYGQIDPLREYQMEGFAMFESMIASIEEEISRYIMKAEIEQNLERQEVVQGEAVHPSSDGEEAKKKPVVKGDQVGRNDLCKCGSGKKYKNCCGIGK”, the “soluble on expression in E. coli” value is reported as “not soluble”.
For “MALTVAKSALEAIREKGLGGFMRMIREEGFMRCLPDGNLLQTKIHNIGATLVGVDKFGNKYYQKLGDTQYGRHRWVEYASKDRYNASQVPAEWHGWLHFITDHTGDELLSLKPKRYGLEHKENFSGEGDAYIYHSKGHTLNPGQKNWTRYQSWVPTKTQ”, the “soluble on expression in E. coli” value was “not soluble”.
For “MAHHHHHHMKKSINILVCNNYLIHDFLSFFKNSDIDVGTKMDFIQKKASQVRIILLNGNEIMPGINVNYLEQIKEVFINAKIYVRYVVQEVGTVSIMELGQLEQDNIPYERKLAGYVLPNVHVKIDSKTNVMKIKSDNVFSQYYNNGKLTSQAFDQGGFFKTKYVASLAENALLKIEGIHNDMENIPDEYYLYFKQRRDKMEKHPPGYLKRVPLQGQIWGNFHANRRNWKRKF”, the “soluble on expression in E. coli” value was “not soluble”.
With “MTSPNNDILAAQLSQLGTLRAALAQAVVGQDAVVEQLLIGLLAGGHCLLEGAPGLGKTLLVRSLGQALDLQFRRVQFTPDLMPSDILGTELLEEDHGTGHRHFRFQQGPIFTNLLLADELNRTPPKTQAALLEAMSERTVSYAGTTYALPAPFFVLATQNPIEQAGTYPLPEAQLDRFLLHVRVDYPSEQEERDILTQTTGSASAQVPKVMDAASVQALQQHVRQVHVGAELLTWINRLVRASRPGPQASDEVRQWIKWGAGPRAGQSLVLASKARALLHGRFAATREDVVALAAPVMRHRLLLSFAAEAEQRTADDVVAALLRAVPFPALEHHHHHH” the “soluble on expression in E. coli” value was “soluble”.
In the case of “MDASSGAAADPAEGSAPEGAASGGTGAPNGTDPLDAPNDLGNVPGESAGAGAGAASSGASRSAIMAVTAGGSQGPAVSWGEAADSRSSTWETEGRAAGSLARQAVTRSCSGCGRAGRSGSAEVMRCTTVASESPSKGPRPQAAKTSTEPRENTSLGGPRSVAPRACSGDMKPGVPITEPAAVSAVASTARAMPKSMIRGPSAARITLPGFRSRCTSPQEWMAARPSASPAPSRSTVCSGSGPCASTASCSDGPGT”, the “soluble on expression in E. coli” value is reported as “not soluble”.
With “MSLTVKDILDAIQSPDSTPADIAALPLPESYRAITVHKDETEMFAGLETRDKDPRKSIHLDDVPVPELGPGEALVAVMASSVNYNSVWTSIFEPLSTFGFLERYGRVSDLAKRHDLPYHVIGSDLAGVVLRTGPGVNAWQAGDEVVAHCLSVELESSDGHNDTMLDPEQRIWGFETNFGGLAEIALVKSNQLMPKPDHLSWEEAAAPGLVNSTAYRQLVSRNGAGMKQGDNVLIWGASGGLGSYATQFALAGGANPICVVSSPQKAEICRAMGAEAIIDRNAEGYRFWKDENTQDPKEWKRFGKRIRELTGGEDIDIVFEHPGRETFGASVFVTRKGGTITTCASTSGYMHEYDNRYLWMSLKRIIGSHFANYREAWEANRLIAKGRIHPTLSKVYSLEDTGQAAYDVHRNLHQGKVGVLCLAPEEGLGVRDREKRAQHLDAINRFRNEGHHHHHH” the “soluble on expression in E. coli” value was “soluble”.
With “MLLNMMCGRQLSAISLCLAVTFAPLFNAQADEPEVIPGDSPVAVSEQGEALPQAQATAIMAGIQPLPEGAAEKARTQIESQLPAGYKPVYLNQLQLLYAARDMQPMWENRDAVKAFQQQLAEVAIAGFQPQFNKWVELLTDPGVNGMARDVVLSDAMMGYLHFIANIPVKGTRWLYSSKPYALATPPLSVINQWQLALDKGQLPTFVAGLAPQHPQYAAMHESLLALLCDTKPWPQLTGKATLRPGQWSNDVPALREILQRTGMLDGGPKITLPGDDTPTDAVVSPSAVTVETAETKPMDKQTTSRSKPAPAVRAAYDNELVEAVKRFQAWQGLGADGAIGPATRDWLNVTPAQRAGVLALNIQRLRLLPTELSTGIMVNIPAYSLVYYQNGNQVLDSRVIVGRPDRKTPMMSSALNNVVVNPPWNVPPTLARKDILPKVRNDPGYLESHGYTVMRGWNSREAIDPWQVDWSTITASNLPFRFQQAPGPRNSLGRYKFNMPSSEAIYLHDTPNHNLFKRDTRALSSGCVRVNKASDLANMLLQDAGWNDKRISDALKQGDTRYVNIRQSIPVNLYYLTAFVGADGRTQYRTDIYNYDLPARSSSQIVSKAEQLIR” the “soluble on expression in E. coli” value was “soluble”.
